Reference: patent US20240294613A1 (BROAD INSTITUTE, published 2024)

Target: SARS-COV-2 spike on authentic SARS-COV-2 virus (SARS-COV-2, UniProt P0DTC2 14-1273)
Assay: cell-based or functional assay

B1: BG7-15 (antibody, V domains shown)
VH: QVQLVQSGAEVKKPGASVKVSCKASGYTFTSYAISWVRQAPGQGLEWMGWVSAYNGNTNYAQKLQGRVTMTTDTSTNTAYMELRSLRSDDTAIYYCAIPYSSVTFDCWGQGTLVTVSS
VL: EIVLTQSPGTLSLSPGERATLSCRASQSVSGTFLAWYQQKPGQAPRLLISGASSRATGIPDRFSGSGSGTDFTLTISRLEPEDFAVYYCQQYGSSRPTFGQGTKLEIKR
  LV IC50: 0.114 µg/mL

B2: BG7-18 (antibody, V domains shown)
VH: EVQLMESGGGLIQPGGSLRLSCAASGFIVSSNYMSWVRQAPGKGLEWVSVIYSGGGTDYADSVKGRFTISRDNSKNTLFLQMNSLRAEDTAVYYCARGAAMVKELFDYWGQGTQVTVSS
VL: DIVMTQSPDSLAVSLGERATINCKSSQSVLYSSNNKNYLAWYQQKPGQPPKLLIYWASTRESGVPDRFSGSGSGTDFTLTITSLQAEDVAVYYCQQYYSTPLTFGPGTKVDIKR
  LV IC50: 0.115 µg/mL
